Results: patent publication US20040120954A1, “Regulation of mt1-mmp activity” (priority 2000, published 2004)

What was measured:
[1] = molecular target: FLAG epitope-tagged MT1-MMP (MT1-F) (human) (UniProt P50281); test: binding of 25 nM 125I-labeled TIMP-2 to transfected CHO-K1 cells at 0 C, with and without BB-94
[2] = molecular target: Membrane-type 1 matrix metalloproteinase (MT1-MMP) (human) (UniProt P50281)
[3] = molecular target: MT1-F/NGFR (chimera of the ectodomain of MT1-F with the transmembrane/cytoplasmic domain of NGFR) (human) (UniProt P50281); test: COS1 cells co-transfected with MT1-F/NGFR, Rac1DA and MT1PEX-F, PY20 Western blot (FIG. 24)
[4] = molecular target: MT1-F/NGFR (chimera of the ectodomain of MT1-F with the transmembrane/cytoplasmic domain of NGFR) (human) (UniProt P50281); test: competition with the dimer formation of MT1-F/NGFR in co-transfected COS1 cells, PY20 Western blot (FIG. 10)

decrease in TIMP-2 binding on the cell surface on co-transfection of MT1PEX-F, against MT1-F alone [1] [%] | Matrigel invasion by HT1080 cells (GFP-positive invading cells) [2] [%] | decrease of the phosphotyrosine signal of MT1-F/NGFR [3] [%] | inhibition of the phosphorylation of MT1-F/NGFR [4] [%] | Substance
37 | – | – | – | Recombinant human TIMP-2 (tissue inhibitor of metalloproteinase-2) (from UniProt P16035)
– | 70 | 43 | > 90 | Catalytic domain-deleted FLAG-tagged MT1-MMP (MT1PEX-F) (from UniProt P50281)
